Reference: patent publication US7598033B2, “Method and devices for running reactions on a target plate for MALDI mass spectrometry” (University of Pennsylvania, priority 2003, dated 2009)

Key:
[1] = Fluorogenic substrate microarray, aerosol deposition of enzyme: boc-VLK-MCA; format: biochemical; conditions: pure plasmin 1 μM deposited on the array
[2] = tested on: fluorogenic substrates on the array; assay: Microarray assay of diluted recalcified citrated plasma with added plasmin; format: biochemical, human
Description: (§1) Well characterized for over 30 years, serine proteases of the coagulation pathway in plasma were selected as a system in which to monitor the delivery of complex enzyme fluids to the microassay. Fluorogenic substrates in DMSO/glycerol were assayed to a glass slide.
The microarray detected the modest activation of the coagulation pathway in recalcified diluted plasma due to low level factor Xa and thrombin activity (Butenas, 1997; Rand, 1996). Since corn trypsin inhibitor was not present to inhibit factor XIIa (Rand, 1996), moderate activation of the contact system and kallikrein generation was detected by conversion of the kallikrein substrate.
[…] This plasmin activity was detected by a strong signal in the plasmin substrate spot. […] Plasmin is also a potent activator of factor XU to factor XUa which can in turn convert prekallikrein to kallilkrein.

[3] = Fluorogenic substrate microarray: plasmin on thrombin and kallikrein substrates; format: biochemical; conditions: pure plasmin 1 μM
Description: as §1
(§2) After spray application, thrombin caused a 65-fold increase in fluorescence activity after conversion of the boc-VPR-MCA substrate. […] Aerosol deposition of pure tPA (10 μM) to a sensing array caused significant cleavage of the tPA, thrombin and Xa substrates, resulting in fluorescence that was 18- to 20-fold above background.

[4] = Morita, 1977; cited from earlier work
[5] = Fluorogenic substrate microarray: tPA on tPA, thrombin and Xa substrates; format: biochemical; conditions: aerosol deposition of pure tPA 10 μM
Description: as §1, §2

signal for the boc-VLK-MCA substrate above background [1] [fold] | Molecule | signal in the plasmin substrate spot ([2]; plasmin 0.43 μM final concentration added to diluted recalcified citrated plasma) | cleavage of substrates on the array ([2]; plasmin 2.14-1 μM final concentration added to plasma) | activity on the thrombin and kallikrein substrates [3] | reported activity on boc-VPR-MCA and Z-FR-MCA [4] | reported activity on tPA and factor Xa substrates [4] | fluorescence above background from cleavage of the tPA, thrombin and Xa substrates [5]
25 | plasmin: pure plasmin, serine protease deposited on the array (protein, UniProt P00747 20-580; P00747 581-810, looked up, plasmin, pure plasmin, serine protease deposited on the array) Plasmin heavy chain A: EPLDDYVNTQGASLFSVTKKQLGAGSIEECAAKCEEDEEFTCRAFQYHSKEQQCVIMAENRKSSIIIRMRDVVLFEKKVYLSECKTGNGKNYRGTMSKTKNGITCQKWSSTSPHRPRFSPATHPSEGLEENYCRNPDNDPQGPWCYTTDPEKRYDYCDILECEEECMHCSGENYDGKISKTMSGLECQAWDSQSPHAHGYIPSKFPNKNLKKNYCRNPDRELRPWCFTTDPNKRWELCDIPRCTTPPPSSGPTYQCLKGTGENYRGNVAVTVSGHTCQHWSAQTPHTHNRTPENFPCKNLDENYCRNPDGKRAPWCHTTNSQVRWEYCKIPSCDSSPVSTEQLAPTAPPELTPVVQDCYHGDGQSYRGTSSTTTTGKKCQSWSSMTPHRHQKTPENYPNAGLTMNYCRNPDADKGPWCFTTDPSVRWEYCNLKKCSGTEASVVAPPPVVLLPDVETPSEEDCMFGNGKGYRGKRATTVTGTPCQDWAAQEPHRHSIFTPETNPRAGLEKNYCRNPDGDVGGPWCYTTNPRKLYDYCDVPQCAAPSFDCGKPQVEPKKCPGR Plasmin light chain B: VVGGCVAHPHSWPWQVSLRTRFGMHFCGGTLISPEWVLTAAHCLEKSPRPSSYKVILGAHQEVNLEPHVQEIEVSRLFLEPTRKDIALLKLSSPAVITDKVIPACLPSPNYVVADRTECFITGWGETQGTFGAGLLKEAQLPVIENKVCNRYEFLNGRVQSTELCAGHLAGGTDSCQGDSGGPLVCFEKDKYILQGVTSWGLGCARPNKPGVYVRVSRFVTWIEGVMRNN | strong signal | significant cleavage of each substrate | detectable activity | activity | no detectable activity | –
– | tPA: pure tPA delivered by aerosol deposition to a sensing array (protein, UniProt P00750 36-562, looked up) Tissue-type plasminogen …: SYQVICRDEKTQMIYQQHQSWLRPVLRSNRVEYCWCNSGRAQCHSVPVKSCSEPRCFNGGTCQQALYFSDFVCQCPEGFAGKCCEIDTRATCYEDQGISYRGTWSTAESGAECTNWNSSALAQKPYSGRRPDAIRLGLGNHNYCRNPDRDSKPWCYVFKAGKYSSEFCSTPACSEGNSDCYFGNGSAYRGTHSLTESGASCLPWNSMILIGKVYTAQNPSAQALGLGKHNYCRNPDGDAKPWCHVLKNRRLTWEYCDVPSCSTCGLRQYSQPQFRIKGGLFADIASHPWQAAIFAKHRRSPGERFLCGGILISSCWILSAAHCFQERFPPHHLTVILGRTYRVVPGEEEQKFEVEKYIVHKEFDDDTYDNDIALLQLKSDSSRCAQESSVVRTVCLPPADLQLPDWTECELSGYGKHEALSPFYSERLKEAHVRLYPSSRCTSQHLLNRTVTDNMLCAGDTRSGGPQANLHDACQGDSGGPLVCLNDGRMTLVGIISWGLGCGQKDVPGVYTKVTNYLDWIRDNMRP | – | – | – | – | – | 18- to 20 fold
